How the values were obtained:
[1] = biological target: recombinant Trypanosoma cruzi trans-sialidase (construct not stated for these experiments) (Trypanosoma cruzi) (UniProt Q26966)
[2] = biological target: T1, recombinant Trypanosoma cruzi trans-sialidase (construct not stated for these experiments) (Trypanosoma cruzi, strain  …, UniProt Q26966); assay: SPR; BIAcore 2000; purified mAb 13G9 amine-coupled to a CM5 chip; TS (1 nM to 10 µM) injected at 50 µl/min in HBS-EP (150 mM NaCl, 0.05% P20, 10 mM HEPES pH 7.4); KD calculated from the kinetic constants; apparent; conditions: both partners purified
T1 construct: trans-sialidase, Trypanosoma cruzi, GenBank L26499; enzymatically active recombinant TS; also called T. cruzi TS; source: E. coli BL21, purified (Ni-charged Hi-Trap Chelating HP, MonoQ)

[3] = biological target: T1, recombinant Trypanosoma cruzi …; assay: cell-based or functional assay
[4] = biological target: T1, recombinant Trypanosoma cruzi …; assay: ITC; raw data not shown; done in the laboratory of Dr. Alan Cooper; conditions not stated; conditions: both partners purified

B1: Fab fragment of mAb 13G9 (Fab, V domains shown)
VH: VKLQQSGVELVRPGTSVKMSCKAVGYTFTYDWIGWVKQRPGHGLEWIGDIYLGGGYINYNEKFKGKVILTADTSSSTAYMQLSSLTSEDSAIYYCARGHYDGSYFDYWGQGTTLTVSS
VL: DVLMTQTPTIMSASIGEEITLTCSASSSVSHMHWYQHKSGTSPKLLIYITSYLASGVPSRFSGSGSGTFYSLTISSVEAEDAADYYCHQWSTFPSTFGSGTKLEIK
For B1, the IC50 of inhibition of TS activity (remnant activity of 2 ng TS with sialyllactose and [14C]-lactose, increasing amounts of purified Fab) [1] was 1600 pM.

B2: TS-neutralizing mouse monoclonal antibody 13G9 (IgG2aκ) (antibody, V domains shown)
VH: B1 VH
VL: B1 VL
notes: they are those of the Fab heavy chain in PDB 3OPZ (chain H; also I and J); rest of the mouse IgG2a heavy chain constant region beyond the Fab (hinge, CH2, CH3); the antibody was typed as IgG2aκ; they are those of the Fab light chain in PDB 3OPZ (chain L; also M and N); also called mAb 13G9; 13G9 mAb; source: 13G9 hybridoma culture supernatant; purified (Protein A-Sepharose, MonoQ) or used as …
For B2, the Kd [2] was roughly 720 pM, the “IC50 of inhibition of TS activity (remnant activity of 2 ng TS with sialyllactose and [14C]-lactose, increasing amounts of whole 13G9 IgG)” value [3] was 56 pM and the Kd [4] was less than 1000 pM.

— article PMC3252381, “Trypanosoma cruzi trans-Sialidase in Complex with a Neutralizing Antibody: Structure/Function Studies towards the Rational Design of Inhibitors” (PLoS Pathogens, 2012)
